Data set [1] concerns the molecule itself. The data set is described as follows: crystal structure; DNPH1^E104Q co-crystallised with hmdUMP at 4 °C; space group P2_(1), 1.78 Å; six chains in the asymmetric unit.
Data set [2] concerns the molecule itself. The data set is described as follows: crystal structure; DNPH1^E55Q co-crystallised with hmdUMP; space group P2_(1)2_(1)2_(1), 1.65 Å; one homodimer in the asymmetric unit.

Residue numbers refer to the chain shown, from its start. Names may count otherwise.

B1: DNPH1^E104Q (human 2'-deoxynucleoside 5'-monophosphate N-glycosidase, crystallisation construct aa 19-162, E104Q) (enzyme, UniProt O43598 19-162, looked up)
chain: GRPALYFCGSIRGGREDRTLYERIVSRLRRFGTVLTEHVAAAELGARGEEAAGGDRLIHEQDLEWLQQADVVVAEVTQPSLGVGYQLGRAVAFNKRILCLFRPQSGRVLSAMIRGAADGSRFQVWDYEEGEVEALLDRYFEADP
notes: also called RCL; source: E. coli BL21 Star (DE3), purified (Ni-NTA, TEV cleavage, HisTrap and Resource Q flow-through, size exclusion)
Regarding B1, the binding result in data set [1] is listed as “binds”.

B2: DNPH1^E55Q (human 2'-deoxynucleoside 5'-monophosphate N-glycosidase, crystallisation construct aa 19-162, E55Q) (enzyme, UniProt O43598 19-162, looked up)
chain: B1 chain with E37Q, Q86E
modifications: deoxyribose monophosphate (dRP) covalently fused to E104
notes: 2'-deoxynucleoside 5'-monophosphate N-glycosidase (DNPH1, RCL), human, isoform 1, residues 19-162 (crystallisation construct) with the point mutation E55Q; Co-crystallised with hmdUMP; the crystal holds the trapped glycosyl-enzyme intermediate; also called RCL
With B2, the binding result in data set [2] was “binds”.

The record behind these values is paper PMC10603095 (Nature Communications, 2023).
